Assay results: patent US8840892B2, “Method of administering antibiotic therapy for treating intracellular infectious diseases” (Universidad Nacional Autónoma de México, priority 2003, dated 2014)

Columns and labels:
[1] = tested on: Mycobacterium tuberculosis; test: experimental model of pulmonary tuberculosis in BALB/c mice; format: in vivo
PGE formation (COX-2) = test: inhibition of PGE formation by selective COX-2 inhibitors
[2] = mouse, in vivo
TGF-β = settings: recombinant soluble form, in vitro; cited from earlier work

In the case of `O=C(O)c1cccnc1Nc1cccc(C(F)(F)F)c1` [niflumic acid, reference compound], the “bacteria colony forming units (CFU) in lung” value ([1]; mouse, in vivo) is reported as “decreased significantly”, the “decrease of the area affected by pneumonia in relation to the control group” value ([1]; mouse, in vivo) is reported as 25% and the “expression of IL-2, TNF-α, IFN-γ and nitric acid synthetase (increase) and interleukin 10 (decrease)” value ([1]; mouse, in vivo) is reported as “same pattern”. For the same molecule, the “inhibition of the formation of PGE” value (PGE formation (COX-2)) was 98%.

With `COc1ccc2c(c1)c(CC(=O)O)c(C)n2C(=O)c1ccc(Cl)cc1` [indometacine] the gastric side effect [2] was “extensive erosive gastritis”.

B1: soluble betaglycan: soluble (recombinant) ectodomain of betaglycan, TGF-β type III receptor; natural antagonist of TGF-β (protein, UniProt Q03167 21-787, looked up)
extracellular domain: GPEPGALCELSPVSASHPVQALMESFTVLSGCASRGTTGLPQEVHVLNLRTAGQGPGQLQREVTLHLNPISSVHIHHKSVVFLLNSPHPLVWHLKTERLATGVSRLFLVSEGSVVQFSSANFSLTAETEERNFPHGNEHLLNWARKEYGAVTSFTELKIARNIYIKVGEDQVFPPKCNIGKNFLSLNYLAEYLQPKAAEGCVMSSQPQNEEVHIIELITPNSNPYSAFQVDITIDIRPSQEDLEVVKNLILILKCKKSVNWVIKSFDVKGSLKIIAPNSIGFGKESERSMTMTKSIRDDIPSTQGNLVKWALDNGYSPITSYTMAPVANRFHLRLENNAEEMGDEEVHTIPPELRILLDPGALPALQNPPIRGGEGQNGGLPFPFPDISRRVWNEEGEDGLPRPKDPVIPSIQLFPGLREPEEVQGSVDIALSVKCDNEKMIVAVEKDSFQASGYSGMDVTLLDPTCKAKMNGTHFVLESPLNGCGTRPRWSALDGVVYYNSIVIQVPALGDSSGWPDGYEDLESGDNGFPGDMDEGDASLFTRPEIVVFNCSLQQVRNPSSFQEQPHGNITFNMELYNTDLFLVPSQGVFSVPENGHVYVEVSVTKAEQELGFAIQTCFISPYSNPDRMSHYTIIENICPKDESVKFYSPKRVHFPIPQADMDKKRFSFVFKPVFNTSLLFLQCELTLCTKMEKHPQKLPKCVPPDEACTSLDASIIWAMMQNKKTFTKPLAVIHHEAESKEKGPSMKEPNPISPPIFHGLDTLTV
modifications: extracellular domain
With B1 the “extent of pneumonia (in words)” value ([1]; advanced phase of infection) was “increased”, the “bacteria colony forming units (CFU) in lung” value ([1]; after 30 days of treatment, vs untreated control) was “decreased significantly” and the “CFU less than control group” value ([1]; after 60 days of treatment) was 50%. For the same molecule, the “more pneumonia than the control group” value ([1]; after two months of treatment, increase vs untreated control) was 30%, the “bacillary load / amount of tuberculosis bacilli in the lung (in words)” value ([1]; intraperitoneal, advanced phase of the disease) was “significant decrease” and the “neutralization of the effects of TGF-β” value (TGF-β) was “potent neutralizing agent”.
